Laboratory results reported in IntAct's records for PubMed 7973632.

B1: Receptor-like protein kinase 5 (Arabidopsis thaliana (Mouse-ear cress)), P47735 (parent)
chain: MLYCLILLLCLSSTYLPSLSLNQDATILRQAKLGLSDPAQSLSSWSDNNDVTPCKWLGVSCDATSNVVSVDLSSFMLVGPFPSILCHLPSLHSLSLYNNSINGSLSADDFDTCHNLISLDLSENLLVGSIPKSLPFNLPNLKFLEISGNNLSDTIPSSFGEFRKLESLNLAGNFLSGTIPASLGNVTTLKELKLAYNLFSPSQIPSQLGNLTELQVLWLAGCNLVGPIPPSLSRLTSLVNLDLTFNQLTGSIPSWITQLKTVEQIELFNNSFSGELPESMGNMTTLKRFDASMNKLTGKIPDNLNLLNLESLNLFENMLEGPLPESITRSKTLSELKLFNNRLTGVLPSQLGANSPLQYVDLSYNRFSGEIPANVCGEGKLEYLILIDNSFSGEISNNLGKCKSLTRVRLSNNKLSGQIPHGFWGLPRLSLLELSDNSFTGSIPKTIIGAKNLSNLRISKNRFSGSIPNEIGSLNGIIEISGAENDFSGEIPESLVKLKQLSRLDLSKNQLSGEIPRELRGWKNLNELNLANNHLSGEIPKEVGILPVLNYLDLSSNQFSGEIPLELQNLKLNVLNLSYNHLSGKIPPLYANKIYAHDFIGNPGLCVDLDGLCRKITRSKNIGYVWILLTIFLLAGLVFVVGIVMFIAKCRKLRALKSSTLAASKWRSFHKLHFSEHEIADCLDEKNVIGFGSSGKVYKVELRGGEVVAVKKLNKSVKGGDDEYSSDSLNRDVFAAEVETLGTIRHKSIVRLWCCCSSGDCKLLVYEYMPNGSLADVLHGDRKGGVVLGWPERLRIALDAAEGLSYLHHDCVPPIVHRDVKSSNILLDSDYGAKVADFGIAKVGQMSGSKTPEAMSGIAGSCGYIAPEYVYTLRVNEKSDIYSFGVVLLELVTGKQPTDSELGDKDMAKWVCTALDKCGLEPVIDPKLDLKFKEEISKVIHIGLLCTSPLPLNRPSMRKVVIMLQEVSGAVPCSSPNTSKRSKTGGKLSPYYTEDLNSV
partner: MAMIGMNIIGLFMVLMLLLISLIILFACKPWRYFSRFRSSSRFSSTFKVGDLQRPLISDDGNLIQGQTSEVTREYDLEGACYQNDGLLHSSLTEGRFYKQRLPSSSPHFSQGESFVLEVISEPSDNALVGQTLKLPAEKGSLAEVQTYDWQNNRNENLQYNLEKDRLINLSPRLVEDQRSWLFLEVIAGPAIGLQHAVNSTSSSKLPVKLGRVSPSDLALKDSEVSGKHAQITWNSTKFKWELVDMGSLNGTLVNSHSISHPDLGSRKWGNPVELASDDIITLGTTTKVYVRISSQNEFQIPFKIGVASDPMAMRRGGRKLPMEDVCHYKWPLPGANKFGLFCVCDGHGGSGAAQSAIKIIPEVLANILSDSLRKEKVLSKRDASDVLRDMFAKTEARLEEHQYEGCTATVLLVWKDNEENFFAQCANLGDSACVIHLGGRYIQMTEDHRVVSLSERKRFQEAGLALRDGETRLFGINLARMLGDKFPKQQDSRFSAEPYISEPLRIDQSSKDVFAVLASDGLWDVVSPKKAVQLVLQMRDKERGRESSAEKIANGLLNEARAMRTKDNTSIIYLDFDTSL

Variants of: B1
Details: with KAPP

| effect of a mutation on the interaction | Variant |
| --- | --- |
| disrupting interaction | K711E |
